Experimental data published in the supplement of paper PMC9170038.

system: K4 kissing-loop RNA reporter; assay: apparent KD of K4 kissing-loop reporter; higher = weaker reporter binding; settings: Eterna round: R107; input ligand: FMN 200 uM
Description: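 RNA-MaP round R107: designed RNA switches with theophylline, tryptophan, arginine or FMN aptamers are transcribed on-chip within common flanks. They are titrated with a labelled K4 kissing-loop RNA reporter in RNA-MaP buffer (100 mM Tris pH 7.5, 80 mM KCl, 4 mM MgCl2), without ligand or with the indicated ligand. Median apparent KD per design.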
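Note: bound reporter read as fluorescence of individual clusters on recovered sequencing chips by microscopy, with normalized cluster intensities fitted with a binding model.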

Sequence | apparent KD of K4 kissing-loop reporter
AGGGAUGAUGGAUAAAUAAACAAAAGGGAUACCAGUCAAAUAAUAGGCCCUUGGCAGCUUUAGAUCAGUGAUGUUGAAGAUAUUG [Theophylline A Same State; Euphoria Solution] | 84.1 nM
CCUAUCUCAUACGAUACCAGUCGUCGAGUGAUGUUCGAUUAAAUAUAUUUGCCAAAUAACGACCCUUGGCAGCGUAUGGGAUAGG [Ex Theophylline B K4 17] | 367 nM
GUACGGCGGGCGGCCGCCACUGGUAUACGAGUGAUGUUCGGAUAUACGUGAUGUAUGGUAAUUAACAGGACCGGGUCAGGGCCGG [whbob_SS_Tryp_B_t23] | 115 nM
AUUUAUUCGAGUGAUGUUCGUGAUUUUUCAGAGGAUAUGCGUAAUAGCAGAAGGCUGUAUUUAUAUAUAUUUUGAUUUUUUUAAA [JR_Nu3_ExcFMNA_Sub024] | 82.2 nM
CGAGUGAUGUUCGUUUAUUACUCUGUUUGACAGGAUAUGCGGAAACGCAGAAGGGUCACCUUUGAGUUAGACGGAGUUAUUUUUU [Ex FMN A 22] | 539 nM
UUACUACCCAGUGAUGUUGGGUAGCGGCGGCGAGGACCGGUACGGCCGCCACUCGGCGCACGGGAGUGAUGUUCCUACCGUUAGG [Same state Tryptophan A GF 8] | 514 nM
UGAUACCAGACUGAUACCAGCCAGUGAUGUUGGCUAAAACCAAAAGCUGGCAAAGCCAGCGGCCCUUGGCAGCAGUCUGGUAUCU [TheoBX 1 #SwitchBubble #StaticStem] | 816 nM
AAAUUUUAAAGUGAUACCAGACAUCUCAAUUACAUUAAUAAAGCUAAGUGAUGUUUAGCAGUCCCUUGGCAGCACAAUUUAAUUA [JR_SSTheophyB_Sub011] | 272 nM
AAUAAAAUCACGGCCGCCACUGAAUAAUUACGAAGUAGUGAUGUUACUUCACAUAUCUUAUUUAACAGGACCGGGUGAAUAUUUA [#16 K4 Tryptophan B Exclusion] | 72.3 nM
UCUAACAAAUCGGCCGCCACUGAAAUAACCCAGGAGUGAUGUUCCAUCGUCCUAGACUACUCUUCCAGGACCGGGAUCUGUGUUC [theeternabot_exclusion_KL_Trp_B_25] | 298 nM
GGUGACAACCAGAGGUGAUGUAUAGUAUCGCGAGGACCGGUACGGCCGCCACUCGUGAAGAGAAAGGAGUGAUGUUCCGUAAUGG [Kazoo C7] | 287 nM
GCAAUCCCGGCGGCCGCCACUUUCAUACCAGUGAUGUUGAGUAGGAAAUGGAAUAUGCGCUGAAUAAGGACCGGGCCUAAGGAGA [theeternabot_exclusion_KL_Trp_B_47] | 270 nM
GGAGGGAUCUCGGCCGCCACUCGUAAGAAAUGGGCCUCAGGGAUAUAGUGAUGUUAUGUAAAGAAGAGGACCGGGAGAAAGAAGG [ExTryptoB.Dd] | 222 nM
UUUCUUUUUUUGAUGUUUUUUGUAUAAUGGCAGGAUAUCGUAGAUGCGAGAAGGGCUUUUAUGCGUUAUGAGUGAUGUUUGUAGG [aaxazvmullin] | 324 nM
CUAUGGAAACAUAGUGAUCGGGAAACCGAUACCAGUAUGGAAACAUACCCUUGGCAGCGGAAUGAUCUAACGGAGUGAUGUUCCG [Theophylline A K4 23] | 492 nM
UUUUAAAUGUCUGAUACCAGAGAAAAUAUAUGUAGUGAUGUUAUAUACAAAUUGAAUAAGCUCCCUUGGCAGCAGUAUUAAUUUU [AstrosExc-TheB#11] | 493 nM

same assay, conditions: Eterna round: R107; input ligand: arginine 13.2 mM

Sequence | apparent KD of K4 kissing-loop reporter
AAGUGUCAUUAGACACAGACUACAAUACACUAGGAUAUGCUGAUAAGCAGAAGGAGUGAUGUUCCUUUCAAGUAGUCAAUUAAAU [FmnAX 21 Mat Inspired #SwitchBubble #StaticStem #K4Late] | 148 nM
GGAUCCACCAGUGAUGUUGGAGAAAACUUCAAGGAUAUGACGAAAGUCAGAAGGUGGUAGACUGGACAAAGUCCGGUGGGAUCCA [FmnA10 U29+G78] | 214 nM
GGCAUAGUCUCAACGUGUGGUUGGGUUGGGAAGGAUAUUUGAUCGAAAAGAAGGUCCCGCAUUGAGUGAUGUUCAAGGGCUCCAA [theeternabot_exclusion_KL_FMN_A_26] | 220 nM
CCAGGAUGAUGAGGAUGAUGAAUUACUGAAGGAGCGCAUAUGGUUGCAGGUAGGUCGCGGUGAAUAAGUAUAGUGAUGUUAUGCC [SSArgA.X] | 407 nM
GCCGUAGAUGGAAGGAGCGUGGUGGACUCGUGAAGUGAUGUUUCAAGUCGAUAUGCCCAACCACAGGUAGGUCGCCAUCUACGGC | 161 nM
GUAGGAUGAGGAGGAGGAUGAAUUACUGAAGGAGCGCAUAUAAAUGCAGGUAGGUCGCGGUAAAGAAGUAUAGUGAUGUUAUAUA [SSArgA.G] | 636 nM
UGGUGCCAUUGGCGGGUAGAUAGUGGUGGCAAGGAUAUGUGAGCGAACAGAAGGUGCAUCAAGUUCAGUGAUGUUGGGCUCGAUU [theeternabot_sameState_KL_FMN_A_20] | 184 nM
AUCGAUAUCAGAGGAUAUGCUUAAUUGAUUUAUUAUUAUUUAUUAUGCAGUGAUGUUGCAUUUUUUGCAGAAGGCUGAUUUCGAA [JR_SSFMNB_Sub022] | 150 nM
UGUCAUGGAAACAUGAACGUUGAUGUUCGACGAGGACCGGUACGGCCGCCACUCGAGUAAUAGUCAGUGAUGUUGACUGGGCUAA [KL-SSTryp-A form1 sub2] | 216 nM
UAUAUAGUGACGGCCGCCACUAUAUUAAUGUUUUUGUUAGAGUGAUGUUUUGAUUAAUAUUUUUAUAGGACCGGGUUAUAUGUUA [xzzxmullin] | 403 nM
